Source: article PMC2744266, “The Ataxia (ax ^J) Mutation Causes Abnormal GABAA Receptor Turnover in Mice” (PLoS Genetics, 2009)

Target: T1, GABAAR α1 subunit, full length, expressed in HEK293 cells (UniProt P62812 28-455)
T1 sequence (looked up): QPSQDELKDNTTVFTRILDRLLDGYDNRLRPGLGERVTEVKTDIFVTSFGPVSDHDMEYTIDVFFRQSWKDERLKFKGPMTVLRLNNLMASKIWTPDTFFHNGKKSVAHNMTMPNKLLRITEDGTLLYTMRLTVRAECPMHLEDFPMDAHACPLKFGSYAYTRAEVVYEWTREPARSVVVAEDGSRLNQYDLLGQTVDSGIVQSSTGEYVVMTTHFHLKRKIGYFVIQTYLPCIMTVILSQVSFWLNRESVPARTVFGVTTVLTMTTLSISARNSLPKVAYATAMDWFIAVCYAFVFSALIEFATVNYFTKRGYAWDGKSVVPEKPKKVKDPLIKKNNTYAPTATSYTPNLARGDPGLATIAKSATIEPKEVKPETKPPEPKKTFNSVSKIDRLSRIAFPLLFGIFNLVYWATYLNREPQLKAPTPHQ
Experiment: cell-based or functional assay

- GABAAR α1-GFP surface membrane levels (surface biotinylation, HEK293 cells expressing GABAAR α1-GFP and GABAAR β3) with the competing peptide mRFP-GABAAR α1(334–346) against mRFP: 2.5 fold
B1: Endogenous Usp14 protein derived from mouse brain lysates (enzyme, mouse (endogenous in brain), UniProt Q9JMA1 1-493, looked up)
chain: MPLYSVTVKWGKEKFEGVELNTDEPPMVFKAQLFALTGVQPARQKVMVKGGTLKDDDWGNIKMKNGMTVLMMGSADALPEEPSAKTVFVEDMTEEQLATAMELPCGLTNLGNTCYMNATVQCIRSVPELKDALKRYAGALRASGEMASAQYITAALRDLFDSMDKTSSSIPPIILLQFLHMAFPQFAEKGEQGQYLQQDANECWIQMMRVLQQKLEAIEDDSGRETDSSSAPAVTPSKKKSLIDQYFGVEFETTMKCTESEEEEVTKGKENQLQLSCFINQEVKYLFTGLKLRLQEEITKQSPTLQRNALYIKSSKISRLPAYLTIQMVRFFYKEKESVNAKVLKDVKFPLMLDVYELCTPELQEKMVSFRSKFKDLEDKKVNQQPNANDKNSPPKEIKYEPFSFADDIGSNNCGYYDLQAVLTHQGRSSSSGHYVSWVRRKQDEWIKFDDDKVSIVTPEDILRLSGGGDWHIAYVLLYGPRRVEIMEEESEQ
